Data reported in patent publication US20240124560A1.

Columns and labels:
[1] = molecular target: HIV-1 Env of NIH-064_0260.v5.c1 (HIV-1); test: cell-based or functional assay
[2] = molecular target: HIV-1 Env of NAC_JRFL (HIV-1); test: cell-based or functional assay
[3] = molecular target: HIV-1 Env of isolate COT6, mutant D674E (HIV-1); test: cell-based or functional assay
[4] = molecular target: HIV-1 Env of pseudovirus NIH-014_6244.13.B5.4567 (HIV-1); test: cell-based or functional assay
[5] = molecular target: HIV-1 Env of pseudovirus NIH-015_62357.14.D3.4589 (HIV-1); test: cell-based or functional assay
[6] = molecular target: HIV-1 Env of isolate Du156.12 (HIV-1); test: cell-based or functional assay
[7] = molecular target: HIV-1 Env of NIH-021_ZM214M.PL15 (HIV-1); test: cell-based or functional assay
[8] = molecular target: HIV-1 Env of NIH-012_1012.11.TC21.3257 (HIV-1); test: cell-based or functional assay
[9] = molecular target: HIV-1 Env of NIH-024_ZM53M.PB12 (HIV-1); test: cell-based or functional assay
[10] = molecular target: HIV-1 Env of pseudovirus NIH-119_T211.9 (HIV-1); test: cell-based or functional assay
[11] = molecular target: HIV-1 Env of pseudovirus NIH-044_ZM247F.F7 (HIV-1); test: cell-based or functional assay
[12] = molecular target: HIV-1 Env of NIH-023_ZM249M.PL1 (HIV-1); test: cell-based or functional assay
[13] = molecular target: HIV-1 Env of NIH-077_BJOX009000.02.4 (HIV-1); test: cell-based or functional assay
[14] = molecular target: HIV-1 Env of NIH-054_CNE53 (HIV-1); test: cell-based or functional assay
[15] = molecular target: HIV-1 Env of NIH-116_T263.8 (HIV-1); test: cell-based or functional assay
[16] = molecular target: HIV-1 Env of pseudovirus NIH-115_928.28 (HIV-1); test: cell-based or functional assay
[17] = molecular target: HIV-1 Env of NIH-117_T278.5 (HIV-1); test: cell-based or functional assay
[18] = molecular target: HIV-1 Env of NIH-094_3817.v2.c59 (HIV-1); test: cell-based or functional assay
[19] = molecular target: HIV-1 Env of pseudovirus NIH-103_0815.v3.c3 (HIV-1); test: cell-based or functional assay
[20] = molecular target: HIV-1 Env of NIH-045_7030102001E5(Rev.) (HIV-1); test: cell-based or functional assay
[21] = molecular target: HIV-1 Env of NIH-001_6535.3 (HIV-1); test: cell-based or functional assay
[22] = molecular target: HIV-1 Env of NAC_MN (HIV-1) (UniProt P05877); test: cell-based or functional assay
[23] = molecular target: HIV-1 Env of pseudovirus NIH-038_Ce1172 H1 (HIV-1); test: cell-based or functional assay
[24] = molecular target: HIV-1 Env of isolate COT6 (wild-type) (HIV-1); test: cell-based or functional assay
[25] = molecular target: HIV-1 Env of pseudovirus NIH-019_Du422.1 (HIV-1); test: cell-based or functional assay
[26] = molecular target: HIV-1 Env of isolate NIH-091_231965.c01 (HIV-1); test: cell-based or functional assay
[27] = molecular target: HIV-1 Env of pseudovirus NIH-036_Ce2010 F5 (HIV-1); test: cell-based or functional assay
[28] = molecular target: HIV-1 Env of pseudovirus NIH-020_ZM197M.PB7 (HIV-1); test: cell-based or functional assay
[29] = molecular target: HIV-1 Env of pseudovirus NIH-077_BJOX009000.02.4 (HIV-1); test: cell-based or functional assay
[30] = molecular target: HIV-1 Env of NIH-034_Ce0393 C3 (HIV-1); test: cell-based or functional assay
[31] = molecular target: HIV-1 Env of NIH-080_BJOX025000.01.1 (HIV-1); test: cell-based or functional assay
[32] = molecular target: HIV-1 Env of pseudovirus NIH-043_ZM249M.B10 (HIV-1); test: cell-based or functional assay
[33] = molecular target: HIV-1 Env of pseudovirus NIH-076_CNE5 (HIV-1); test: cell-based or functional assay
[34] = molecular target: HIV-1 Env of NIH-030_HIV-0013095.2.11 (HIV-1); test: cell-based or functional assay
[35] = molecular target: HIV-1 Env of NIH-003_SC422661.8 (HIV-1); test: cell-based or functional assay
[36] = molecular target: HIV-1 Env of NIH-031_HIV-16055.2.3 (HIV-1); test: cell-based or functional assay
[37] = molecular target: HIV-1 Env of isolate COT6, mutant D674T (HIV-1); test: cell-based or functional assay
[38] = molecular target: 4E10-specific peptide; test: ELISA on peptide MPER (671-683), antibody titrated
[39] = molecular target: full-length MPER peptide; test: ELISA on peptide MPER (654-683), antibody titrated
[40] = molecular target: HIV-2 Env (parental virus of the chimeras) (HIV-2); test: cell-based or functional assay
[41] = molecular target: HIV-2 C1 chimera Env (HIV-2 (HIV-1 MPER) chimera); test: cell-based or functional assay
[42] = molecular target: HIV-2 C3 chimera Env (HIV-2 (HIV-1 MPER) chimera); test: cell-based or functional assay
[43] = molecular target: HIV-1 Du156.12 Env (HIV-1 Du156.12); test: cell-based or functional assay
[44] = molecular target: HIV-1 Env of isolate COT6, mutant D674S (HIV-1); test: cell-based or functional assay
[45] = molecular target: HIV-2 C4 chimera Env (HIV-2 (HIV-1 MPER) chimera); test: cell-based or functional assay

VRC01 (antibody)
IC80 neutralization [1]: 0.516 µg/mL
IC80 neutralization [2]: 0.741 µg/mL
Fold increase in IC50 relative to wild-type COT6 [3]: 1.2 fold
neutralization IC50 [4]: 0.045 µg/mL
neutralization IC50 [5]: 1.74 µg/mL
Fold change (IC50 wash)/(IC50 no wash) [6]: 1.5 fold
IC50 (µg/ml), no wash [6]: 0.11 µg/mL
IC50 (µg/ml), wash [6]: 0.16 µg/mL
IC80 neutralization [7]: 2.42 µg/mL
IC80 neutralization [8]: 0.318 µg/mL
IC80 neutralization [9]: 3.63 µg/mL
neutralization IC50 [10]: 12.8 µg/mL
neutralization IC50 [11]: 0.236 µg/mL
IC80 neutralization [12]: 0.197 µg/mL
IC80 neutralization [13]: 2.34 µg/mL
IC80 neutralization [14]: 0.166 µg/mL
IC80 neutralization [15]: 0.505 µg/mL
neutralization IC50 [16]: 0.249 µg/mL
IC80 neutralization [17]: > 50 µg/mL
IC80 neutralization [18]: > 50 µg/mL
neutralization IC50 [19]: 0.019 µg/mL
IC80 neutralization [20]: 1.49 µg/mL
IC80 neutralization [21]: 3.7 µg/mL
IC80 neutralization [22]: 0.196 µg/mL
neutralization IC50 [23]: > 50 µg/mL
Fold increase in IC50 (wild-type COT6, the reference) [24]: 1 fold
neutralization IC50 [25]: > 50 µg/mL
IC80 (µg/ml), TZM-bl pseudovirus neutralization [26]: 0.743 µg/mL
neutralization IC50 [27]: 0.153 µg/mL
neutralization IC50 [28]: 0.17 µg/mL
neutralization IC50 [29]: 0.565 µg/mL
IC80 neutralization [30]: 1.46 µg/mL
IC80 neutralization [31]: 24.8 µg/mL
neutralization IC50 [32]: 0.071 µg/mL
neutralization IC50 [33]: 0.059 µg/mL
IC80 neutralization [34]: 0.058 µg/mL
IC80 neutralization [35]: 0.481 µg/mL
IC80 neutralization [36]: 0.206 µg/mL
Fold increase in IC50 relative to wild-type COT6 [37]: 1 fold

PGZL1 (antibody)
EC50 (read off the curve) [38]: 0.02 µg/mL
EC50 (read off the curve) [39]: 0.02 µg/mL
IC80 neutralization [1]: > 50 µg/mL
IC80 neutralization [2]: > 50 µg/mL
neutralization IC50 [4]: 1.31 µg/mL
neutralization IC50 [5]: 27.2 µg/mL
IC80 neutralization [7]: > 50 µg/mL
IC80 neutralization [8]: > 50 µg/mL
IC80 neutralization [9]: > 50 µg/mL
neutralization IC50 [10]: 13.2 µg/mL
IC80 neutralization [12]: > 50 µg/mL
IC80 neutralization [13]: 15.8 µg/mL
IC80 neutralization [14]: 23.9 µg/mL
IC80 neutralization [15]: 8.18 µg/mL
neutralization IC50 [16]: 1.38 µg/mL
IC80 neutralization [17]: > 50 µg/mL
IC80 neutralization [18]: > 50 µg/mL
neutralization IC50 [19]: 18.7 µg/mL
IC80 neutralization [20]: > 50 µg/mL
IC80 neutralization [21]: 4.69 µg/mL
IC80 neutralization [22]: 0.564 µg/mL
neutralization IC50 [23]: 0.948 µg/mL
neutralization IC50 [25]: 7.51 µg/mL
IC80 (µg/ml), TZM-bl pseudovirus neutralization [26]: > 50 µg/mL
neutralization IC50 [27]: > 50 µg/mL
neutralization IC50 [28]: 1.91 µg/mL
neutralization IC50 [29]: 3.97 µg/mL
IC80 neutralization [30]: > 50 µg/mL
IC80 neutralization [31]: 29.3 µg/mL
neutralization IC50 [32]: 6.26 µg/mL
neutralization IC50 [33]: 24.6 µg/mL
IC80 neutralization [34]: 0.113 µg/mL
IC80 neutralization [35]: > 50 µg/mL
IC80 neutralization [36]: 42.6 µg/mL

4E10 (antibody)
EC50 (read off the curve) [38]: 0.02 µg/mL
EC50 (read off the curve) [39]: 0.03 µg/mL
IC80 neutralization [1]: 6.08 µg/mL
IC80 neutralization [2]: > 50 µg/mL
Fold increase in IC50 relative to wild-type COT6 [3]: 10 fold
neutralization IC50 [4]: 0.077 µg/mL
IC50 (µg/ml), neutralization of HIV-2 [40]: > 10 µg/mL
neutralization IC50 [5]: 2.87 µg/mL
IC50 (µg/ml), neutralization of chimeric virus [41]: 0.8 µg/mL
IC80 neutralization [7]: 21.2 µg/mL
IC80 neutralization [8]: 8.25 µg/mL
IC80 neutralization [9]: 42.6 µg/mL
neutralization IC50 [10]: 1.2 µg/mL
neutralization IC50 [11]: 1.85 µg/mL
IC80 neutralization [12]: 5.77 µg/mL
IC50 (µg/ml), neutralization of chimeric virus [42]: > 10 µg/mL
IC80 neutralization [13]: 1.62 µg/mL
IC80 neutralization [14]: 1.52 µg/mL
IC80 neutralization [15]: 0.927 µg/mL
neutralization IC50 [16]: 0.112 µg/mL
IC80 neutralization [17]: 6.03 µg/mL
IC50 (µg/ml), neutralization of HIV-1 Du156.12 [43]: 0.101 µg/mL
IC80 neutralization [18]: 2.12 µg/mL
neutralization IC50 [19]: 1.2 µg/mL
IC80 neutralization [20]: 15.7 µg/mL
IC80 neutralization [21]: 3.29 µg/mL
IC80 neutralization [22]: 0.135 µg/mL
Fold increase in IC50 relative to wild-type COT6 [44]: 1.65 fold
neutralization IC50 [23]: 8.81 µg/mL
Fold increase in IC50 (wild-type COT6, the reference) [24]: 1 fold
neutralization IC50 [25]: 1.42 µg/mL
IC80 (µg/ml), TZM-bl pseudovirus neutralization [26]: > 50 µg/mL
neutralization IC50 [27]: 14.4 µg/mL
neutralization IC50 [28]: 0.226 µg/mL
neutralization IC50 [29]: 0.389 µg/mL
IC80 neutralization [30]: 2.56 µg/mL
IC50 (µg/ml), neutralization of chimeric virus [45]: 1.41 µg/mL
IC80 neutralization [31]: 1.59 µg/mL
neutralization IC50 [32]: 1.11 µg/mL
neutralization IC50 [33]: 1.34 µg/mL
IC80 neutralization [34]: 0.258 µg/mL
IC80 neutralization [35]: 11.1 µg/mL
IC80 neutralization [36]: 6.57 µg/mL
Fold increase in IC50 relative to wild-type COT6 [37]: 25 fold
